Data reported in PMC8458463, “Liquid condensation of reprogramming factor KLF4 with DNA provides a mechanism for chromatin organization”.

Assays:
Conditions in all cases: protein: recombinant; tags: Nano-His6-TEV tag cleaved
KLF4 DBD [1] = biological target: T1, KLF4 DBD (human, UniProt O43474 418-513); assay: EMSA; Zn2+; 1 uM DNA, 0-6 uM DBD; 3:1 complex at 3 equivalents, tighter than NANK; EMSA: 20 mM Tris pH 8, 50 mM NaCl, 5% glycerol, 0.01 mg/ml BSA, 0.1 mM DTT, 0.05 mM TCEP; gel run at 4 C; protein refolded with 3.3 eq ZnSO4
KLF4 DBD [2] = biological target: T1, KLF4 DBD; assay: EMSA; Zn2+; 1 uM DNA, 0-6 uM DBD; 1:1, 2:1 and 3:1 complexes, 3:1 needs 6 equivalents; EMSA: 20 mM Tris pH 8, 50 mM NaCl, 5% glycerol, 0.01 mg/ml BSA, 0.1 mM DTT, 0.05 mM TCEP; gel run at 4 C; protein refolded with 3.3 eq ZnSO4
KLF4 DBD [3] = biological target: T1, KLF4 DBD; assay: X-ray crystallography; Zn2+; 2.14 A, 1:1 complex; EMSA: 20 mM Tris pH 8, 50 mM NaCl, 5% glycerol, 0.01 mg/ml BSA, 0.1 mM DTT, 0.05 mM TCEP; gel run at 4 C; protein refolded with 3.3 eq ZnSO4
KLF4 DBD [4] = biological target: T1, KLF4 DBD; assay: EMSA; Zn2+; DBD up to 15 uM; EMSA: 20 mM Tris pH 8, 50 mM NaCl, 5% glycerol, 0.01 mg/ml BSA, 0.1 mM DTT, 0.05 mM TCEP; gel run at 4 C; protein refolded with 3.3 eq ZnSO4

T1 sequence (O43474 418-513): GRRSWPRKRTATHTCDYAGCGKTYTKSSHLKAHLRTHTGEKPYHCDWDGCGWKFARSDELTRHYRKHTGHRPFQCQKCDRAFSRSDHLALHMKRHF

B1: NANKm (dsDNA)
DNA 1: AGGGGGTGTGCCCGCCAGGAGGGGTGGGTC
DNA 2: GACCCACCCCTCCTGGCGGGCACACCCCCT
modifications: 5-methyl-dC at position 13 of strand 1 (CpG in KLFB); complement strand methylation not stated
- binding result (KLF4 DBD [1]): binds

B2: NANK (dsDNA)
DNA 1: B1 DNA 1
DNA 2: B1 DNA 2
- binding result (KLF4 DBD [2]): binds

B3: NKA (dsDNA)
DNA 1: AGGGGGTGTGCC
DNA 2: GGCACACCCCCT
- binding result (KLF4 DBD [3]): binds

B4: NKC (dsDNA)
DNA 1: GAGGGGTGGGTC
DNA 2: GACCCACCCCTC
- binding result (KLF4 DBD [4]): binds

B5: NKB (dsDNA)
DNA 1: TGCCCGCCAGGA
DNA 2: TCCTGGCGGGCA
- binding result (KLF4 DBD [4]): binds
